T1: TNFR1 (Homo sapiens, UniProt P19438)
T1 chain: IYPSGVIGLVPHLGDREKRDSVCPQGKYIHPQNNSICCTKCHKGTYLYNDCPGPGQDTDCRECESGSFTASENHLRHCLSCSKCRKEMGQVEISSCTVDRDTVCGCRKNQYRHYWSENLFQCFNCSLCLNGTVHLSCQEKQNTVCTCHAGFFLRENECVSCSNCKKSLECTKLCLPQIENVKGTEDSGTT


Target: T1, TNFR1
Test: yeast display SC50

Binder | apparent Kd (screen) [nM]
K73Y (designed binder) SMEEEVEKAAKEYEKKKKEAIEKHLEKLKAKDKEAAERFLKELEEAAKEYAKDEAKTMSEEEAKRRAKKYKEYVLLSELSEEEQKEIKEAEEKLVRTILKYVEEAAK | 10.4
A47V (designed binder) SMEEEVEKAAKEYEKKKKEAIEKHLEKLKAKDKEAAERFLKELEEAVKEYAKDEAKTMSEEEAKRRAKKYKEKVLLSELSEEEQKEIKEAEEKLVRTILKYVEEAAK | 0.49
Y70H (designed binder) SMEEEVEKAAKEYEKKKKEAIEKHLEKLKAKDKEAAERFLKELEEAAKEYAKDEAKTMSEEEAKRRAKKHKEKVLLSELSEEEQKEIKEAEEKLVRTILKYVEEAAK | 5.31
S59Y (designed binder) SMEEEVEKAAKEYEKKKKEAIEKHLEKLKAKDKEAAERFLKELEEAAKEYAKDEAKTMYEEEAKRRAKKYKEKVLLSELSEEEQKEIKEAEEKLVRTILKYVEEAAK | 7.78
K41F (designed binder) SMEEEVEKAAKEYEKKKKEAIEKHLEKLKAKDKEAAERFLFELEEAAKEYAKDEAKTMSEEEAKRRAKKYKEKVLLSELSEEEQKEIKEAEEKLVRTILKYVEEAAK | 0.718
K48P (designed binder) SMEEEVEKAAKEYEKKKKEAIEKHLEKLKAKDKEAAERFLKELEEAAPEYAKDEAKTMSEEEAKRRAKKYKEKVLLSELSEEEQKEIKEAEEKLVRTILKYVEEAAK | 12.5
K85G (designed binder) SMEEEVEKAAKEYEKKKKEAIEKHLEKLKAKDKEAAERFLKELEEAAKEYAKDEAKTMSEEEAKRRAKKYKEKVLLSELSEEEQGEIKEAEEKLVRTILKYVEEAAK | 0.49
I98V (designed binder) SMEEEVEKAAKEYEKKKKEAIEKHLEKLKAKDKEAAERFLKELEEAAKEYAKDEAKTMSEEEAKRRAKKYKEKVLLSELSEEEQKEIKEAEEKLVRTVLKYVEEAAK | 11.4
E104T (designed binder) SMEEEVEKAAKEYEKKKKEAIEKHLEKLKAKDKEAAERFLKELEEAAKEYAKDEAKTMSEEEAKRRAKKYKEKVLLSELSEEEQKEIKEAEEKLVRTILKYVETAAK | 0.49
L43M (designed binder) SMEEEVEKAAKEYEKKKKEAIEKHLEKLKAKDKEAAERFLKEMEEAAKEYAKDEAKTMSEEEAKRRAKKYKEKVLLSELSEEEQKEIKEAEEKLVRTILKYVEEAAK | 1.86
K31M (designed binder) SMEEEVEKAAKEYEKKKKEAIEKHLEKLKAMDKEAAERFLKELEEAAKEYAKDEAKTMSEEEAKRRAKKYKEKVLLSELSEEEQKEIKEAEEKLVRTILKYVEEAAK | 0.49
K56V (designed binder) SMEEEVEKAAKEYEKKKKEAIEKHLEKLKAKDKEAAERFLKELEEAAKEYAKDEAVTMSEEEAKRRAKKYKEKVLLSELSEEEQKEIKEAEEKLVRTILKYVEEAAK | 2.73
K73A (designed binder) SMEEEVEKAAKEYEKKKKEAIEKHLEKLKAKDKEAAERFLKELEEAAKEYAKDEAKTMSEEEAKRRAKKYKEAVLLSELSEEEQKEIKEAEEKLVRTILKYVEEAAK | 12.5
L75T (designed binder) SMEEEVEKAAKEYEKKKKEAIEKHLEKLKAKDKEAAERFLKELEEAAKEYAKDEAKTMSEEEAKRRAKKYKEKVTLSELSEEEQKEIKEAEEKLVRTILKYVEEAAK | 0.446
E44I (designed binder) SMEEEVEKAAKEYEKKKKEAIEKHLEKLKAKDKEAAERFLKELIEAAKEYAKDEAKTMSEEEAKRRAKKYKEKVLLSELSEEEQKEIKEAEEKLVRTILKYVEEAAK | 0.956
E72P (designed binder) SMEEEVEKAAKEYEKKKKEAIEKHLEKLKAKDKEAAERFLKELEEAAKEYAKDEAKTMSEEEAKRRAKKYKPKVLLSELSEEEQKEIKEAEEKLVRTILKYVEEAAK | 1.05
L99V (designed binder) SMEEEVEKAAKEYEKKKKEAIEKHLEKLKAKDKEAAERFLKELEEAAKEYAKDEAKTMSEEEAKRRAKKYKEKVLLSELSEEEQKEIKEAEEKLVRTIVKYVEEAAK | 2.25
E26F (designed binder) SMEEEVEKAAKEYEKKKKEAIEKHLFKLKAKDKEAAERFLKELEEAAKEYAKDEAKTMSEEEAKRRAKKYKEKVLLSELSEEEQKEIKEAEEKLVRTILKYVEEAAK | 0.956
E4L (designed binder) SMELEVEKAAKEYEKKKKEAIEKHLEKLKAKDKEAAERFLKELEEAAKEYAKDEAKTMSEEEAKRRAKKYKEKVLLSELSEEEQKEIKEAEEKLVRTILKYVEEAAK | 0.79
K23P (designed binder) SMEEEVEKAAKEYEKKKKEAIEPHLEKLKAKDKEAAERFLKELEEAAKEYAKDEAKTMSEEEAKRRAKKYKEKVLLSELSEEEQKEIKEAEEKLVRTILKYVEEAAK | 11.4
A105T (designed binder) SMEEEVEKAAKEYEKKKKEAIEKHLEKLKAKDKEAAERFLKELEEAAKEYAKDEAKTMSEEEAKRRAKKYKEKVLLSELSEEEQKEIKEAEEKLVRTILKYVEETAK | 0.869
K15P (designed binder) SMEEEVEKAAKEYEPKKKEAIEKHLEKLKAKDKEAAERFLKELEEAAKEYAKDEAKTMSEEEAKRRAKKYKEKVLLSELSEEEQKEIKEAEEKLVRTILKYVEEAAK | 6.43
A63P (designed binder) SMEEEVEKAAKEYEKKKKEAIEKHLEKLKAKDKEAAERFLKELEEAAKEYAKDEAKTMSEEEPKRRAKKYKEKVLLSELSEEEQKEIKEAEEKLVRTILKYVEEAAK | 6.43
E26S (designed binder) SMEEEVEKAAKEYEKKKKEAIEKHLSKLKAKDKEAAERFLKELEEAAKEYAKDEAKTMSEEEAKRRAKKYKEKVLLSELSEEEQKEIKEAEEKLVRTILKYVEEAAK | 0.539
K16I (designed binder) SMEEEVEKAAKEYEKIKKEAIEKHLEKLKAKDKEAAERFLKELEEAAKEYAKDEAKTMSEEEAKRRAKKYKEKVLLSELSEEEQKEIKEAEEKLVRTILKYVEEAAK | 0.446
F39T (designed binder) SMEEEVEKAAKEYEKKKKEAIEKHLEKLKAKDKEAAERTLKELEEAAKEYAKDEAKTMSEEEAKRRAKKYKEKVLLSELSEEEQKEIKEAEEKLVRTILKYVEEAAK | 2.73
